# Data from patent US20200207859A1 (priority 2017, published 2020).
# B1: Conjugate A (anti-CD74 IgG-DBCO-PEG4-maytansine conjugate) (antibody, V domains shown)
# VH: QVQLVESGGGVVQPGRSLRLSCAASGFNFSDYGMHWVRQAPGKGLEWVAVIWYDGSISYYADSVKGRFTISRDNSKNTLYLQMNSLRAEDTAVYYCARGGTVEHGAVYGTDVWGQGTTVTVSS
# VL: DIQMTQSPSSVSASVGDRVTITCRASQGIGSWLAWYQQKPGKAPKLLIYAADRLQSGVPSRFSGSGSGTDFTLTISSLQPEDFATYYCQQYHTYPLTFGGGTKVEIK
# modifications: here or on the partner: para-azidomethyl-L-phenylalanine (pAMF, residue 30) at heavy chain EU position 404 (constant region, outside SEQ ID NO 236), linked to DBCO-PEG4-maytansine
# B2: Conjugate E (anti-CD74 IgG-PEG4-MMAF conjugate) (antibody, V domains shown)
# VH: QVQLVESGGGVVQPGRSLRLSCAASGFNFSDYGMHWVRQAPGKGLEWVAVIWYDGSISYYADSVKGRFTISRDNSKNTLYLQMNSLRAEDTAVYYCARGGTVEHGAVYGTDVWGQGTTVTVSS
# VL: DIQMTQSPSSVSASVGDRVTITCRASQGIGSWLAWYQQKPGKAPKLLIYAADRLQSGVPSRFSGSGSGTDFTLTISSLQPEDFATYYCQQYHTYPLTFGGGTKVEIK
# modifications: here or on the partner: modified amino acid residue 30 (pAMF) according to Example 2, position not stated for this conjugate, linked to PEG4-MMAF
# B3: Conjugate F (anti-CD74 IgG-PEG4-MMAE conjugate) (antibody, V domains shown)
# VH: QVQLVESGGGVVQPGRSLRLSCAASGFNFSDYGMHWVRQAPGKGLEWVAVIWYDGSISYYADSVKGRFTISRDNSKNTLYLQMNSLRAEDTAVYYCARGGTVEHGAVYGTDVWGQGTTVTVSS
# VL: DIQMTQSPSSVSASVGDRVTITCRASQGIGSWLAWYQQKPGKAPKLLIYAADRLQSGVPSRFSGSGSGTDFTLTISSLQPEDFATYYCQQYHTYPLTFGGGTKVEIK
# modifications: here or on the partner: modified amino acid residue 30 (pAMF) according to Example 2, position not stated for this conjugate, linked to PEG4-MMAE
# B4: Conjugate C (anti-CD74 IgG-val-cit-PAB-hemiasterlin conjugate) (antibody, V domains shown)
# VH: QVQLVESGGGVVQPGRSLRLSCAASGFNFSDYGMHWVRQAPGKGLEWVAVIWYDGSISYYADSVKGRFTISRDNSKNTLYLQMNSLRAEDTAVYYCARGGTVEHGAVYGTDVWGQGTTVTVSS
# VL: DIQMTQSPSSVSASVGDRVTITCRASQGIGSWLAWYQQKPGKAPKLLIYAADRLQSGVPSRFSGSGSGTDFTLTISSLQPEDFATYYCQQYHTYPLTFGGGTKVEIK
# modifications: here or on the partner: modified amino acid residue 30 (pAMF) according to Example 2, position not stated for this conjugate, linked to val-cit-PAB-hemiasterlin
# B5: Conjugate B (anti-CD74 IgG-PEG4-maytansine conjugate) (antibody, V domains shown)
# VH: QVQLVESGGGVVQPGRSLRLSCAASGFNFSDYGMHWVRQAPGKGLEWVAVIWYDGSISYYADSVKGRFTISRDNSKNTLYLQMNSLRAEDTAVYYCARGGTVEHGAVYGTDVWGQGTTVTVSS
# VL: DIQMTQSPSSVSASVGDRVTITCRASQGIGSWLAWYQQKPGKAPKLLIYAADRLQSGVPSRFSGSGSGTDFTLTISSLQPEDFATYYCQQYHTYPLTFGGGTKVEIK
# modifications: here or on the partner: modified amino acid residue 30 (pAMF) according to Example 2, position not stated for this conjugate, linked to a PEG4-maytansine linker-payload
# Biological target: CD74 (human), P04233
# Assay: cell-based or functional assay
# Chain of CD74 (human), P04233 (P04233 whole entry): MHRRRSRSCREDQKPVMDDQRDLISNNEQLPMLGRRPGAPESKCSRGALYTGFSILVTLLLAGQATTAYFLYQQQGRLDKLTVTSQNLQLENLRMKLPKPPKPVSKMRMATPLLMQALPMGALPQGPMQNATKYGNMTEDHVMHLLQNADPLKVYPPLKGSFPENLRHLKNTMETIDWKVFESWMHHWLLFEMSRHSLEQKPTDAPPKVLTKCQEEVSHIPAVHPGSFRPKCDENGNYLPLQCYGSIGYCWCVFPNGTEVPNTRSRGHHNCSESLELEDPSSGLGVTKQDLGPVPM
Binder,"cell killing IC50, ARD (MM) cells [nM]","cell killing IC50, ARP-1 (MM) cells [nM]","cell killing IC50, BDCM (AML) cells [nM]","cell killing IC50, JVM-13 (CLL) cells [nM]","cell killing IC50, RPMI-6666 (HL) cells [nM]","cell killing IC50, SU-DHL-6 (NHL) cells [nM]","cell killing IC50, SUP-B15 (ALL) cells [nM]","cell killing Span, ARD (MM) cells [%]","cell killing Span, ARP-1 (MM) cells [%]","cell killing Span, BDCM (AML) cells [%]","cell killing Span, JVM-13 (CLL) cells [%]","cell killing Span, RPMI-6666 (HL) cells [%]","cell killing Span, SU-DHL-6 (NHL) cells [%]","cell killing Span, SUP-B15 (ALL) cells [%]","cell killing IC50, RPMI-8226 (MM) cells [nM]","cell killing Span, RPMI-8226 (MM) cells [%]",also measured
B1,8.6,9,4.6,1.5,1,0.6,3,40,77,76,65,85,98,65,,,"cell killing EC50, HH T lymphoma cells, 120 h CellTiter-Glo: 0.22 nM; cell killing EC50, HuT-78 T lymphoma cells, 120 h CellTiter-Glo: 0.59 nM; cell killing EC50, My-La T lymphoma cells, 120 h CellTiter-Glo: 0.54 nM; cell killing IC50, ARD (MM) cells, 72 h CellTiter-Glo: 8.6 nM; cell killing IC50, ARP-1 (MM) cells, 72 h CellTiter-Glo: 9 nM; cell killing IC50, BDCM (AML) cells, 72 h CellTiter-Glo: 4.6 nM; cell killing IC50, JVM-13 (CLL) cells, 72 h CellTiter-Glo: 1.5 nM; cell killing IC50, RPMI-6666 (HL) cells, 72 h CellTiter-Glo: 1 nM; cell killing IC50, SU-DHL-6 (NHL) cells, 72 h CellTiter-Glo: 0.6 nM; cell killing IC50, SUP-B15 (ALL) cells, 72 h CellTiter-Glo: 3 nM; cell killing Span, ARD (MM) cells, 72 h CellTiter-Glo: 38%; cell killing Span, ARP-1 (MM) cells, 72 h CellTiter-Glo: 74%; cell killing Span, BDCM (AML) cells, 72 h CellTiter-Glo: 74%; cell killing Span, HH T lymphoma cells, 120 h CellTiter-Glo: 77%; cell killing Span, HuT-78 T lymphoma cells, 120 h CellTiter-Glo: 72%; cell killing Span, JVM-13 (CLL) cells, 72 h CellTiter-Glo: 58%; cell killing Span, My-La T lymphoma cells, 120 h CellTiter-Glo: 73%; cell killing Span, RPMI-6666 (HL) cells, 72 h CellTiter-Glo: 84%; cell killing Span, SU-DHL-6 (NHL) cells, 72 h CellTiter-Glo: 98%; cell killing Span, SUP-B15 (ALL) cells, 72 h CellTiter-Glo: 64%"
B2,18,6,3.3,7.8,1.5,0.5,2.5,20,71,78,47,80,98,58,,,
B3,16,4.2,1.4,5,0.7,0.3,3.7,73,93,94,59,82,97,65,20,31,
B4,,,,0.9,0.9,0.3,,74,87,89,54,84,97,68,,43,
B5,31,16,15,2,1.3,1.3,5.7,53,82,95,69,89,98,72,51,41,
